Data reported in paper PMC4780012, “SmMYC2a and SmMYC2b played similar but irreplaceable roles in regulating the biosynthesis of tanshinones and phenolic acids in Salvia miltiorrhiza”.

B1: Wild-type CYP98A14 (dsDNA)
DNA 1: ATTAGTGATTAACACGTGCACATTTATTAA
DNA 2: TTAATAAATGTGCACGTGTTAATCACTAAT
B2: m-HCT6 (dsDNA)
DNA 1: AAGCCTAAAGCTTTTTTTGCTGCTAAACCT
DNA 2: AGGTTTAGCAGCAAAAAAAGCTTTAGGCTT
B3: Wild-type HCT6 (dsDNA)
DNA 1: AAGCCTAAAGCTCACATGGCTGCTAAACCT
DNA 2: AGGTTTAGCAGCCATGTGAGCTTTAGGCTT

Columns and labels:
SmMYC2a-His = SmMYC2a-His (Salvia miltiorrhiza, UniProt A0A088SC56 1-602); experiment: EMSA; EMSA: 2 ug purified protein with 2 ug 3'-biotin probe, room temperature, 10 min; buffer, salt and pH not stated; conditions: protein: recombinant; tags: His (text: C-terminal, cleavable; pET32a vector, BamHI/HindIII); chain copies: 2; label: 3' biotin; blunt
Chain of SmMYC2a-His (A0A088SC56 entry or part of it): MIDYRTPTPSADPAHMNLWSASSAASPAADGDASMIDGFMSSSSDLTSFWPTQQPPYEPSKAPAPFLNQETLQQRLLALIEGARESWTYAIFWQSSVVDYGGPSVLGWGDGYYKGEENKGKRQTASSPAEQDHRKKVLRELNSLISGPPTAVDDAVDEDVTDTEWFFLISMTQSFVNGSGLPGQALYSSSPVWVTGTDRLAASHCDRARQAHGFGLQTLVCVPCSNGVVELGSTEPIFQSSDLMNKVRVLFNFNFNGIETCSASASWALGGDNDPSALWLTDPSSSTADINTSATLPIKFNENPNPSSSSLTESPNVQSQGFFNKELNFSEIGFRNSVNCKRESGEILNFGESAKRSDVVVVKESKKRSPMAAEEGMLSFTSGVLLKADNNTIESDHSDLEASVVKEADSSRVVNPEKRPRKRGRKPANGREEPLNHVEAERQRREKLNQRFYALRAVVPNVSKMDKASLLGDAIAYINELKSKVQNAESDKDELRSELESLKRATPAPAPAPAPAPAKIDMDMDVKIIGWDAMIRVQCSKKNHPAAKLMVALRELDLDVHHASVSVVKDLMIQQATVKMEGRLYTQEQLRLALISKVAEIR

SmMYC2b-His = SmMYC2b-His (Salvia miltiorrhiza, UniProt UPI0025AD73A7 1-607); experiment: as above; conditions: protein: recombinant; tags: His (text: C-terminal, cleavable; pET32a vector, EcoRV/SalI); chain copies: 2; label: 3' biotin; blunt
Chain of SmMYC2b-His (chain, as listed by the source): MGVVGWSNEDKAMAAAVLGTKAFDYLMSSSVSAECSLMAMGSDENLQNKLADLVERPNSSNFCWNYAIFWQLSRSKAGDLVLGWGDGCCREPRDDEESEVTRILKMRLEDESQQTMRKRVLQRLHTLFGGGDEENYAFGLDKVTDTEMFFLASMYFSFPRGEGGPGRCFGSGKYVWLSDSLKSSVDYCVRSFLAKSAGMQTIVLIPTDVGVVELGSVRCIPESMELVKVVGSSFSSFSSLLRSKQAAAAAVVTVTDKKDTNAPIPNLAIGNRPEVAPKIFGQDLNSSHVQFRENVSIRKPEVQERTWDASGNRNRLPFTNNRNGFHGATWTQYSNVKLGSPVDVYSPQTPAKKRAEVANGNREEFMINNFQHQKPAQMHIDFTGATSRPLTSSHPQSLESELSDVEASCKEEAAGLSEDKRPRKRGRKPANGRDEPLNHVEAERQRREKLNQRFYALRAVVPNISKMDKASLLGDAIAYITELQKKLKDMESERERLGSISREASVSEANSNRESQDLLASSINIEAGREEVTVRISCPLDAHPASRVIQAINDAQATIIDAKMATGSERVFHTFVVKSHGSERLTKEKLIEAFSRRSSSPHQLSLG

Row | Binder | binding result (SmMYC2a-His) | binding result (SmMYC2b-His)
1 | B1 | binds | binds
2 | B2 | no binding | 
3 | B3 | binds | 
